# Results published in patent publication US20230312753A1 (IMMUNORIZON, published 2023).
# T1: 5T4 on cells (NCI-H226 endogenous; CHO over-expressing 5T4) (UniProt Q13641 32-420, limits assumed)
# T1 construct: whole, on cells
# T1 sequence (looked up): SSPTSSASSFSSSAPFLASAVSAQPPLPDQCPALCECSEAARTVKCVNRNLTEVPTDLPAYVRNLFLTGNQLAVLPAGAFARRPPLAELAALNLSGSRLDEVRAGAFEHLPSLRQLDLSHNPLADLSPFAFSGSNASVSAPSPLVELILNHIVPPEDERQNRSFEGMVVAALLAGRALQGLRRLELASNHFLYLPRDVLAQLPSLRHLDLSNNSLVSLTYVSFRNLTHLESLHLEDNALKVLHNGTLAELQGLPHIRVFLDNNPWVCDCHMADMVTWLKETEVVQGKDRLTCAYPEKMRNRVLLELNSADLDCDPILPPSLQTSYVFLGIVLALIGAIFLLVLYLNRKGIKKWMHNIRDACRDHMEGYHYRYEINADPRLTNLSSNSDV
# B1: IM-1062 Tribody (other)
# heavy: GGSGGSEVQLVESGGGLVQPGGSLRLSCAASGFTFNTYAMNWVRQAPGKGLEWVARIRSKYNNYATYYADSVKDRFTISRDDSKNTLYLQMNSLRAEDTAVYYCVRHGNFGNSYVSWFAYWGQGTMVTVSSASTKGPSVFPLAPSSKSTSGGTAALGCLVKDYFPEPVTVSWNSGALTSGVHTFPAVLQSSGLYSLSSVVTVPSSSLGTQTYICNVNHKPSNTKVDKRVEPKSCPPCGGGGSDIQMTQSPSSLSASVGDRVTITCRASENIYSYLAWYQQKPGKAPKLLIYNAKTLAEGVPSRFSGSGSGTDFTLTISSLQPEDFATYYCQHHYGTPRTFGGGTKVEIKGGGGSGGGGSGGGGSGGGGSQVQLVQSGAEVKKPGASVKVSCKASGYTFTSYWMNWVRQAPGQGLEWMGRIDPYDSETHYAQKLQGRVTMTTDTSTSTAYMELRSLRSDDTAVYYCARGGYDFDVGTLYWFFDVWGQGTTVTVSS
# light: GGSGGSQAVVTQEPSLTVSPGGTVTLTCRSSTGAVTTSNYANWVQQKPGQAPRGLIGGTNKRAPGTPARFSGSLLGGKAALTLSGVQPEDEAEYYCALWYSNLWVFGGGTKLTVLGQPKAAPSVTLFPPSSEELQANKATLVCLISDFYPGAVTVAWKADSSPVKAGVETTTPSKQSNNKYAASSYLSLTPEQWKSHRSYSCQVTHEGSTVEKTVAPTECPPCSGGGSDIQMTQSPSSLSASVGDRVTITCRASQGISNYLAWFQQKPGKAPKSLIYRANRLQSGVPSRFSGSGSGTDFTLTISSLQPEDVATYYCLQYDDFPWTFGQGTKLEIKGGGGSGGGGSGGGGSGGGGSQVQLVQSGAEVKKPGASVKVSCKASGYTFTSFWMHWVRQAPGQGLEWMGRIDPNRGGTEYNEKAKSRVTMTADKSTSTAYMELSSLRSEDTAVYYCAGGNPYYPMDYWGQGTTVTVSS
# notes: Tri-specific antibody (Tribody): anti-CD3 epsilon Fab with an anti-5T4 scFv and an anti-NKG2A scFv, no regulatory domain; also called the Tribody format
# How the values were obtained:
# [1] = target: T2, hCD3epsilon-His (recombinant human CD3 epsilon) (human, UniProt P07766 23-126); assay: ELISA on coated hCD3epsilon-His (FIG. 43A)
# T2 construct: Bought protein; also called recombinant hCD3ε protein; human CD3ε
# T2 sequence (P07766 23-126 limits assumed): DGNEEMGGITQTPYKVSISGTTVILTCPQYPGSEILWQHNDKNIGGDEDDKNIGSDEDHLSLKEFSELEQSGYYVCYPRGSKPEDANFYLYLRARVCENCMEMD
# Procedure: Methods: ELISA binding of Tribody/ProTribody antibody constructs to antigens: Dilute target protein (hCD3epsilon-His (cat # 10977-H08S, supplier Sino Biological); h5T4-His (cat# 19845-H08H, supplier Sino Biological); NKG2A-CD94-ECD-hFc, Lot:20200724002, provided by CP; or NKG2D-ECD-hFc, Lot: 20200413002, provided by CP) into PBS with final concentration of 0.01 µg/mL for hCD3epsilon-His, 0.3 µg/mL for h5T4-His, 1 µg/mL for NKG2A-CD94-ECD-hFc and 0.7 µg/mL for hNKG2D-ECD-hFc respectively and coat 100 µL/well on ELISA plate (cat: 9018, supplier Corning) respectively. Incubate O/N, 4° C. The plates were blocked with 250 µL 1% BSA in PBST for 1 hr at 37° C.Wash 4 times with PBST. All the washes are done using Biotek (Elx 405). All the Tribody set antibodies were diluted to 400 nM and make 4-fold serially dilutions (12 points, including 0 point). Add 100 µL/well diluted antibody constructs solution to plate, incubate for 1 hr at 37° C.Wash 4 times with PBST. Add 100 µL/well anti-human kappa light chain-HRP (1:10000), incubate for 0.5 hr at 37° C. Wash 4 times with PBST. 100 µL/well of TMB substrate was added and incubated at room temperature for 5 min. 100 µL/well of 1N HCl to terminate reaction. Plates were read using ELISA plate reader at 450 nm wavelength (instrunet SpectraMax M5e). […]
# [2] = target: T3, NKG2A on NK92 cells (endogenous) (UniProt P26715 1-233, limits assumed); assay: FACS on NK92 cells, endogenous NKG2A (FIG. 45C)
# T3 construct: whole, on cells
# T3 sequence (P26715 whole entry): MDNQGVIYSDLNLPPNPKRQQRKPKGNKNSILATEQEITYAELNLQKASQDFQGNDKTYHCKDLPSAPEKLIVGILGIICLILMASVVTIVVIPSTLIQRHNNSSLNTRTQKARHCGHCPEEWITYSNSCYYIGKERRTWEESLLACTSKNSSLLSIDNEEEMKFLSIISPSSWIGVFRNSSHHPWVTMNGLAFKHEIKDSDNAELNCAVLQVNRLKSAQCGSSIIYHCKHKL
# Procedure: (§1) Suspension cultured cells was harvested directly, and adherent cell were digested using TrypLE Express Enzyme (cat: 12604-013, supplier Life technologies). Centrifuge at 1000 rpm for 5 min and discard the supernatant. Cells are suspended at a concentration of 2×10⁶/mL in FACS buffer (2% FBS in PBS) and add 100 µL/well of cell suspension to the plate (cat #3799, supplier Corning). Centrifuging the plates at 2000 rpm for 5 min and discard the supernatant. Re-suspend the cells in 100 µL/well of Tribody set antibodies (400 nM start, 4-fold dilution, 8 point including 0 point) and incubate the plate for 60 min at 4° C. Centrifuge the plate at 2000 rpm, 4° C. for 5 min and discard supernatant. Then wash the cells 3 times with 170 µL FACS buffer. Re-suspend the cells at 100 µL/well with secondary antibody (goat anti-human Ig Fab-FITC, Cat # 2085-02, Southern biotech) with 1:400 dilution and incubate the plate for 30 min at 4° C. in dark. Centrifuge the plate at 2000 rpm, 4° C. for 5 min and discard supernatant. […] The fluorescence intensity of the staining was measured using flow cytometer (BD, FACSVerse). The geometric mean fluorescence intensity (GMFI; median fluorescence intensity (MFI)) of set antibodies staining was calculated (BD FACSuite software). Dose-response curves were generated and EC50s for thetrispecific variants binding were calculated using GraphPad Prism software.
# [3] = target: T4, human CD3 epsilon on cells (Jurkat T cells, endogenous) (human, UniProt P07766 23-207); assay: FACS on Jurkat T cells, endogenous hCD3ε (FIG. 45A)
# T4 construct: whole, on cells; On cells CD3 epsilon stands in the TCR/CD3 complex; only the epsilon chain is named as target; also called hCD3ε on Jurkat; CD3ε expressing cells
# T4 sequence (P07766 23-207): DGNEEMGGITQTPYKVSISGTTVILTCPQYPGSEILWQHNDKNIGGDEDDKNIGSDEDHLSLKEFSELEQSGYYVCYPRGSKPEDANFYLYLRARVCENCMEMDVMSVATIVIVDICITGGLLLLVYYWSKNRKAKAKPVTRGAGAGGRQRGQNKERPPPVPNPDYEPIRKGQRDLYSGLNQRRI
# Procedure: as §1, with “buffer.” for “buffer. Re-suspend the cells at 100 µL/well with secondary antibody (goat anti-human Ig Fab-FITC, Cat # 2085-02, Southern biotech) with 1:400 dilution and incubate the plate for 30 min at 4° C. in dark. Centrifuge the plate at 2000 rpm, 4° C. for 5 min and discard supernatant.”
# Results: The expressed trispecific constructs were analyzed for their binding to cells expressing endogenous CD3ε, 5T4 and NKG2A/NKG2D.
# NKG2A-CD94-ECD-hFc = target: T5, NKG2A-CD94-ECD-hFc (human, UniProt P26715 94-233; Q13241 32-179, limits assumed); assay: ELISA on coated NKG2A-CD94-ECD-hFc (FIG. 43D)
# T5 construct: extracellular domain; Lot 20200724002, 'provided by CP'; the two-chain layout here is only the reading of the name; also called human NKG2A (recombinant); NKG2A antigen; not shown: human Fc (hFc)
# T5 sequence (P26715 94-233 limits assumed, chain 1 of 2): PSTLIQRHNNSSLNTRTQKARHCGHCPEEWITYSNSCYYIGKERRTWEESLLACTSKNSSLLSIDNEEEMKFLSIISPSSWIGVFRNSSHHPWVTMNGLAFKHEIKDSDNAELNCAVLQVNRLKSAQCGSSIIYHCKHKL
# T5 sequence (Q13241 32-179 limits assumed, chain 2 of 2): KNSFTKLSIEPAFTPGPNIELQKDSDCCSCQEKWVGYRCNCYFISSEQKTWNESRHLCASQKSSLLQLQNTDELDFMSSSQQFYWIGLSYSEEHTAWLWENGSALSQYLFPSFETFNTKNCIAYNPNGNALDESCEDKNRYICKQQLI
# Procedure: Methods: ELISA binding of Tribody/ProTribody antibody constructs to antigens: Dilute target protein (hCD3epsilon-His (cat # 10977-H08S, supplier Sino Biological); h5T4-His (cat# 19845-H08H, supplier Sino Biological); NKG2A-CD94-ECD-hFc, Lot:20200724002, provided by CP; or NKG2D-ECD-hFc, Lot: 20200413002, provided by CP) into PBS with final concentration of 0.01 µg/mL for hCD3epsilon-His, 0.3 µg/mL for h5T4-His, 1 µg/mL for NKG2A-CD94-ECD-hFc and 0.7 µg/mL for hNKG2D-ECD-hFc respectively and coat 100 µL/well on ELISA plate (cat: 9018, supplier Corning) respectively. Incubate O/N, 4° C. The plates were blocked with 250 µL 1% BSA in PBST for 1 hr at 37° C.Wash 4 times with PBST. All the washes are done using Biotek (Elx 405). All the Tribody set antibodies were diluted to 400 nM and make 4-fold serially dilutions (12 points, including 0 point). Add 100 µL/well diluted antibody constructs solution to plate, incubate for 1 hr at 37° C.Wash 4 times with PBST. Add 100 µL/well anti-human kappa light chain-HRP (1:10000), incubate for 0.5 hr at 37° C. Wash 4 times with PBST. 100 µL/well of TMB substrate was added and incubated at room temperature for 5 min. 100 µL/well of 1N HCl to terminate reaction. Plates were read using ELISA plate reader at 450 nm wavelength (instrunet SpectraMax M5e). Data Analysis was performed using Graphpad prism 5 software by using nonlinear regression (curve fit): log (agonist) vs. response, agonist is antibody concentration (nM) and response is OD value.
# [4] = target: T1, 5T4 on cells (NCI-H226 endogenous; CHO …); assay: FACS on CHO cells over-expressing ectopic 5T4 (FIG. 45D)
# Procedure: Then wash the cells 3 times with 170 µL FACS buffer. Re-suspend the cells at 100 µL/well with secondary antibody (goat anti-human Ig Fab-FITC, Cat # 2085-02, Southern biotech) with 1:400 dilution and incubate the plate for 30 min at 4° C. in dark. Centrifuge the plate at 2000 rpm, 4° C. for 5 min and discard supernatant. Then wash the cells 3 times with FACS buffer and analyze the sample with FACS verse. The fluorescence intensity of the staining was measured using flow cytometer (BD, FACSVerse). The geometric mean fluorescence intensity (GMFI; median fluorescence intensity (MFI)) of set antibodies staining was calculated (BD FACSuite software). Dose-response curves were generated and EC50s for thetrispecific variants binding were calculated using GraphPad Prism software.
# Results: The expressed trispecific constructs were analyzed for their binding to cells expressing endogenous CD3ε, 5T4 and NKG2A/NKG2D. […] (FIG. 45F).
# [5] = target: T6, NKG2A/CD94 on CHO cells (CHOK1-NKG2A-CD94) (human, UniProt P26715 1-233; Q13241 1-179, limits assumed); assay: competitive FACS receptor-ligand blocking assay on CHOK1-NKG2A-CD94 cells, labelled ligand HLA-E PE (FIG. 49)
# T6 construct: whole, on cells; also called CHO cells over-expressing NKG2A/CD94; CHO cell line over expressing ectopic NKG2A
# T6 sequence (P26715 whole entry, chain 1 of 2): as the sequence (P26715 whole entry) above
# T6 sequence (Q13241 whole entry, chain 2 of 2): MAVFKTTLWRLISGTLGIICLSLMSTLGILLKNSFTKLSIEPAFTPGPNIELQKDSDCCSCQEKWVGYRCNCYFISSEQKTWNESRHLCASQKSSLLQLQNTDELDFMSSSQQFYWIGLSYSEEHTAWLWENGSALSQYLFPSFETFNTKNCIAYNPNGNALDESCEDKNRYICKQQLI
binder,measurement,setting,value
B1,EC50,[1],1.69 nM
same,EC50,[2],6.5 nM
same,EC50,[3],1.1 nM
same,EC50,NKG2A-CD94-ECD-hFc,5.7 nM
same,EC50,[4],0.9 nM
same,IC50,[5],29 nM
